Experimental data reported in article PMC11707139.

Target: piggyBat transposase (Myotis lucifugus)
Experiment: AUC; sedimentation velocity, ~3.1 µM purified pBat without DNA, 500 mM NaCl, 25 mM Tris-HCl pH 7.4, 0.5 mM TCEP, 50,000 rpm, 20 °C, c(s) analysis

- stoichiometry N: 2
Substance: piggyBat transposase (enzyme)
